# Assay results reported in patent publication US6951972.
# Test system: Ac transposase (Zea mays)
# Assay: cell_activity
# Conditions: Ds excision from test plasmid in wheat immature embryos; 0 without transposase plasmid
substance,measurement,value
Ds-Ubi-bar element (254 bp Ds 5' and 320 bp Ds 3' ends),activity (blue spots per embryo),61
